Measured values: US20150329642A1 (Genmab, published 2015)

Legend:
[1] = target: T1, cMetECDHis (human, UniProt P08581 25-932, limits assumed, biotinylated in the cross-block ELISA of Example 17); assay: cross-block ELISA; competitor 006
T1 construct: Expressed in HEK-293F cells; also called soluble cMetECDHis; biotinylated cMetECDHis
In short: (§1)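 Percent residual binding of biotinylated cMetECDHis to plate-coated anti-c-Met HuMab, relative to no-competitor wells. Antigen was incubated at a predetermined concentration together with excess competitor, 1 h RT, after blocking in chicken-serum PBST.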

[2] = target: T1, cMetECDHis; assay: cross-block ELISA; competitor 5D5
In short: as §1

[3] = target: T1, cMetECDHis; assay: cross-block ELISA; competitor 098
In short: as §1

[4] = target: T1, cMetECDHis; assay: cross-block ELISA; competitor 058
In short: as §1

[5] = target: T1, cMetECDHis; assay: cross-block ELISA; competitor 005
In short: as §1

[6] = target: T1, cMetECDHis; assay: cross-block ELISA; competitor 024
In short: as §1

[7] = target: T1, cMetECDHis; assay: cross-block ELISA; competitor 181
In short: as §1

[8] = target: T1, cMetECDHis; assay: cross-block ELISA; competitor 069
In short: as §1

[9] = target: T1, cMetECDHis; assay: cross-block ELISA; competitor 035
In short: as §1

[10] = target: T1, cMetECDHis; assay: cross-block ELISA; competitor 064
In short: as §1

[11] = target: T1, cMetECDHis; assay: cross-block ELISA; competitor 045
In short: as §1

[12] = target: T1, cMetECDHis; assay: cross-block ELISA; competitor 008
In short: as §1

[13] = target: T1, cMetECDHis; assay: cross-block ELISA; competitor 101
In short: as §1

[14] = target: T1, cMetECDHis; assay: BLI (Octet); antibody captured, cMetECDHis in solution
In short: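 Bio-layer interferometry: anti-c-Met IgG immobilized via anti-human Fc sensors, exposed roughly 10 min to 10 μg/mL HEK293-made cMetECDHis, then moved to kinetics buffer for off-rate. Affinity derived with a 1:1 Langmuir model.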

[15] = target: T1, cMetECDHis; assay: cross-block ELISA; competitor 062
In short: as §1

[16] = target: T1, cMetECDHis; assay: cross-block ELISA; competitor 022
In short: as §1

[17] = target: T1, cMetECDHis; assay: cross-block ELISA; competitor G11-HZ
In short: as §1

B1: IgG1-1016-058 (antibody, V domains shown)
VH: EVQLVESGGGLVKPGGSLKLSCAASGFTFSDYYMYWVRQTPEKRLEWVATISDDGSYTYYPDSVKGRFTISRDNAKNNLYLQMSSLKSEDTAMYYCAREGLYYYGSGSYYNQDYWGQGTLVTVSS
VL: AIQLTQSPSSLSASVGDRVTITCRASQGLSSALAWYRQKPGKAPKLLIYDASSLESGVPSRFSGSGSGTDFTLTISSLQPEDFATYYCQQFTSYPQITFGQGTRLEIK
notes: also called IgG1-058; TH1016-058
residual binding, % of no competitor [1]: 43.6%
residual binding, % of no competitor [2]: 2.8%
residual binding, % of no competitor [3]: 112%
residual binding, % of no competitor [4]: 4%
residual binding, % of no competitor [5]: 31.4%
residual binding, % of no competitor [6]: 109%
residual binding, % of no competitor [7]: 121%
residual binding, % of no competitor [8]: 113%
residual binding, % of no competitor [9]: 90.1%
residual binding, % of no competitor [10]: 109%
residual binding, % of no competitor [11]: 112%
residual binding, % of no competitor [12]: 90.2%
residual binding, % of no competitor [13]: 104%
Kd [14]: 2.7 nM
koff [14]: 0.00125 s⁻¹
kon [14]: 464000 M⁻¹ s⁻¹
residual binding, % of no competitor [15]: 109%
residual binding, % of no competitor [16]: 6.8%
residual binding, % of no competitor [17]: 81.5%
